Values joined by “and” are separate entries in the source; they are usually repeats but may differ in a detail not shown here. Identical values can stand only once. Like-named read-outs stand apart in the source and are kept apart here.
Experiments:
Assay in all cases: SDS-PAGE
[1] = biological target: Triops cancriformis (tadpole shrimp) sarcolamban peptide (Triops cancriformis)
[2] = biological target: Daphnia pulex (water flea) sarcolamban peptide (Daphnia pulex)
[3] = biological target: Daphnia pulex (water flea) sarcolamban peptide (Daphnia pulex); remark: listed apart in the source

Row | stoichiometry N [1] | stoichiometry N [2] | stoichiometry N [3] | Substance
1 | 2 | – | – | Triops cancriformis (tadpole shrimp) sarcolamban peptide
2 | – | 2 | 3 and 4 and 5 | Daphnia pulex (water flea) sarcolamban peptide
